Reference: publication PMC12409425, “Two distinct protein-protein interfaces drive cooperative binding of the herpes simplex virus protein ICP8 to ssDNA, filament formation and annealing essential for viral replication” (The Journal of Biological Chemistry, 2025)

T1: ICP8Δ60 (HSV-1 ICP8 lacking the 60-aa C-terminal tail) (herpes simplex virus type 1 (HSV-1), …, UniProt P17470 1-1136, in the MST only: labelled on amines with the red dye NT-647-NHS (RED-NHS Monolith kit); unlabelled in the thermal shift assays)
T1 construct: the tail is printed as residues 1136-1196; source: Sf9 insect cells infected with recombinant baculovirus (pFastBac1-ICP8Δ60), purified (SP-Sepharose cation exchange)
T1 sequence: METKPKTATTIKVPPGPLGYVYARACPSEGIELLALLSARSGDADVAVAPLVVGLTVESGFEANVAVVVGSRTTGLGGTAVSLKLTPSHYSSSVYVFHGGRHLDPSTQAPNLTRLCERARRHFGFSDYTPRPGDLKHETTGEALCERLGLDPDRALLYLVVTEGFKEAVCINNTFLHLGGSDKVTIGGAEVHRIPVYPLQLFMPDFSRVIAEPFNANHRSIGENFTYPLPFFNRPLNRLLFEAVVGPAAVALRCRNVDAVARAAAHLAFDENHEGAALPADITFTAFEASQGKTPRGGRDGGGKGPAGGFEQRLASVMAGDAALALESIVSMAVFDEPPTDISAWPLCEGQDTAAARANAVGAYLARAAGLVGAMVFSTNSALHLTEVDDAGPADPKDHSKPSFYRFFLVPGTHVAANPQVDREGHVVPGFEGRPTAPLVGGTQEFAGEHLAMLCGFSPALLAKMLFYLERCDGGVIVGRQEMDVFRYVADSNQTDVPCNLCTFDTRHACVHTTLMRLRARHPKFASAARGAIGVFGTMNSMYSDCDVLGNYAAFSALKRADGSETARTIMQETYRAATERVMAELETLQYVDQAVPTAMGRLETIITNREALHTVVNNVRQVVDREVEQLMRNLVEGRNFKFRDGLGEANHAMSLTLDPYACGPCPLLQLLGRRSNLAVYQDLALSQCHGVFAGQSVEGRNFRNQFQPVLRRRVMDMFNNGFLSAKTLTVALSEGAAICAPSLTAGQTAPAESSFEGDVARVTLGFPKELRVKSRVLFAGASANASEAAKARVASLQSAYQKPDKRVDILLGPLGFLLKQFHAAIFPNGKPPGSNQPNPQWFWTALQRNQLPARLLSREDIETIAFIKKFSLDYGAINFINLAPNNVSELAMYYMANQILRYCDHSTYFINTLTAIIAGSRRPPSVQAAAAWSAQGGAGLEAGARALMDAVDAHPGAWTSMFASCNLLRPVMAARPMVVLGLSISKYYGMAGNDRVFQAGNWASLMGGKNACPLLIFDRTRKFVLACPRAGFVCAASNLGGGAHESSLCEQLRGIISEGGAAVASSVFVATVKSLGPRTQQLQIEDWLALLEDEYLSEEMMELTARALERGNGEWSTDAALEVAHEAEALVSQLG


How the values were obtained:
[1] = target: T1, ICP8Δ60 (HSV-1 ICP8 lacking the 60-aa …); assay: label-free thermal shift (nanoDSF, Tycho NT.6); as a1 (1:10 M ratio), with 1.2 M excess of a 19-mer ssDNA added to the preformed binary complex; ΔTi counted against apo ICP8Δ60 without ssDNA (ssDNA alone gives 1.1 °C); settings: both partners purified
[2] = target: T1, ICP8Δ60 (HSV-1 ICP8 lacking the 60-aa …); assay: label-free thermal shift (nanoDSF), dose series refitted with MoltenProt; 5 μM ICP8Δ60 preincubated with 10 to 100 μM CTD fragment (1:2 to 1:20 M ratio) for 3 h at room temperature; two-state reversible unfolding model; settings: both partners purified
[3] = target: T1, ICP8Δ60 (HSV-1 ICP8 lacking the 60-aa …); assay: MST; ICP8Δ60 labelled with NT-647-NHS at 20 nM or 50 nM, unlabelled CTD fragment titrated from low nanomolar to high micromolar; 20 mM sodium phosphate pH 7.5, 100 mM NaCl, 0.1 mM EDTA, 2 mM DTT, 5 mM MgCl2, 0.05% Tween 20; 30 min at RT; one site binding model; settings: both partners purified
[4] = target: T1, ICP8Δ60 (HSV-1 ICP8 lacking the 60-aa …); assay: label-free thermal shift (nanoDSF, Tycho NT.6); 5 μM ICP8Δ60 with a molar excess of CTD fragment (1:10 M ratio), no ssDNA; shift of the inflection temperature Ti of ICP8Δ60; 20 mM Na phosphate pH 7.6, 100 mM NaCl, 100 μM EDTA, 1 mM TCEP, 10% glycerol, 5 mM MgCl2; heated at 30 °C/min; settings: both partners purified
ICP8 WT = ICP8 WT (Herpes simplex virus type 1 (KOS), UniProt P17470 1-1196); assay: EMSA; cooperative supershifted band present; EMSA: 20 mM HEPES pH 7.5, 150 mM KCl, 2 mM EDTA, 1 mM TCEP, 6% Ficoll, on ice 30 min, gel at 4 °C; thermal shift: 20 mM Na phosphate (SI: HEPES) pH 7.6, 100 mM; settings: protein: recombinant; tags: none stated; chain copies: 4; label: Cy5; single strand
ICP8Δ60 = ICP8Δ60 (Herpes simplex virus type 1 (KOS), UniProt P17470 1-1136); assay: MST; 20 nM DNA; EMSA: 20 mM HEPES pH 7.5, 150 mM KCl, 2 mM EDTA, 1 mM TCEP, 6% Ficoll, on ice 30 min, gel at 4 °C; thermal shift: 20 mM Na phosphate (SI: HEPES) pH 7.6, 100 mM; settings: protein: recombinant; tags: none stated; label: 5' Cy5; single strand
[5] = target: the molecule itself; assay: negative-stain electron microscopy of filament formation; 0.5 μM protein overnight at 4 °C in 20 mM HEPES-KOH pH 7.5, 100 mM NaCl, 10% glycerol, 1 mM DTT, 0.1 mM EDTA, 5 mM MgCl2; uranyl acetate stain; no DNA

| Binder | ΔTi of ICP8Δ60 (Ti complex - Ti apo), + ssDNA [1] [°C] | Kd [3] [µM] | ΔTi of ICP8Δ60 (Ti complex - Ti apo), - ssDNA [4] [°C] | also measured |
| --- | --- | --- | --- | --- |
| ICP8-CTD WT (His-tagged entire C-terminal domain of ICP8, residues 1036-1196) (domain or fragment, ICP8 (UL29) of HSV-1, entire C-terminal domain with the helical bundle and the intact 60-aa disordered tail, residues 1036-1196; The methods give no limits for the pET28a construct and give aa 1049-1135 for the Flag-tagged CTD of the cell experiments; also called WT ICP8-CTD; WT CTD; source: E. coli BL21 (pET28a-His-ICP8-CTD, codon optimised), purified (Talon cobalt beads, Superose 12 gel …)) AASNLGGGAHESSLCEQLRGIISEGGAAVASSVFVATVKSLGPRTQQLQIEDWLALLEDEYLSEEMMELTARALERGNGEWSTDAALEVAHEAEALVSQLGNAGEVFNFGDFGCEDDNATPFGGPGAPGPAFAGRKRAFHGDDPFGEGPPDKKGDLTLDML | 2.9 | 0.147 | 2.1 | Ti of ICP8Δ60 at 1:2 ratio (ICP8Δ60 alone 51.5) [2]: 52.1 ± 0.1 °C; Ti of ICP8Δ60 at 1:5 ratio (ICP8Δ60 alone 51.5) [2]: 52.7 ± 0.1 °C; Ti of ICP8Δ60 at 1:10 ratio (ICP8Δ60 alone 51.5) [2]: 53.3 ± 0.1 °C; Ti of ICP8Δ60 at 1:20 ratio (ICP8Δ60 alone 51.5) [2]: 53.9 ± 0.1 °C |
| ICP8-CTD D1087A (domain or fragment, ICP8 (UL29) of HSV-1, C-terminal domain, residues 1036-1196, with D1087A; source: E. coli BL21 (pET28a-His-ICP8-CTD mutant), purified (Talon cobalt beads, Superose 12 gel filtration)) AASNLGGGAHESSLCEQLRGIISEGGAAVASSVFVATVKSLGPRTQQLQIEAWLALLEDEYLSEEMMELTARALERGNGEWSTDAALEVAHEAEALVSQLGNAGEVFNFGDFGCEDDNATPFGGPGAPGPAFAGRKRAFHGDDPFGEGPPDKKGDLTLDML | 2.4 | 1.55 | 1 |  |
| ICP8-CTD FNF→AAA (domain or fragment, ICP8 (UL29) of HSV-1, C-terminal domain, residues 1036-1196, with the triple alanine substitution of F1142, N1143 and F1144; the text has 1142-1144; also called FNF→AAA CTD; source: E. coli BL21 (pET28a-His-ICP8-CTD mutant), purified (Talon cobalt beads, Superose 12 gel filtration)) AASNLGGGAHESSLCEQLRGIISEGGAAVASSVFVATVKSLGPRTQQLQIEDWLALLEDEYLSEEMMELTARALERGNGEWSTDAALEVAHEAEALVSQLGNAGEVAAAGDFGCEDDNATPFGGPGAPGPAFAGRKRAFHGDDPFGEGPPDKKGDLTLDML | 1.9 | 21.1 | 0.6 |  |
| TTTTTTTTTTTTTTTTTTTTTTTTTTTTTTTTTTTTTTTTTTTTTTTTTT (ssDNA) [Cy5-50-mer dT] |  |  |  | binding result (ICP8 WT): binds |
| TTTTTTTTTTTTTTTTTTTTTTTTT (ssDNA) [Cy5-25-mer poly(dT)] |  |  |  | Kd (ICP8Δ60): 0.07 µM |
| ICP8 WT, full length (natural protein, also called WT ICP8; full-length ICP8) METKPKTATTIKVPPGPLGYVYARACPSEGIELLALLSARSGDADVAVAPLVVGLTVESGFEANVAVVVGSRTTGLGGTAVSLKLTPSHYSSSVYVFHGGRHLDPSTQAPNLTRLCERARRHFGFSDYTPRPGDLKHETTGEALCERLGLDPDRALLYLVVTEGFKEAVCINNTFLHLGGSDKVTIGGAEVHRIPVYPLQLFMPDFSRVIAEPFNANHRSIGENFTYPLPFFNRPLNRLLFEAVVGPAAVALRCRNVDAVARAAAHLAFDENHEGAALPADITFTAFEASQGKTPRGGRDGGGKGPAGGFEQRLASVMAGDAALALESIVSMAVFDEPPTDISAWPLCEGQDTAAARANAVGAYLARAAGLVGAMVFSTNSALHLTEVDDAGPADPKDHSKPSFYRFFLVPGTHVAANPQVDREGHVVPGFEGRPTAPLVGGTQEFAGEHLAMLCGFSPALLAKMLFYLERCDGGVIVGRQEMDVFRYVADSNQTDVPCNLCTFDTRHACVHTTLMRLRARHPKFASAARGAIGVFGTMNSMYSDCDVLGNYAAFSALKRADGSETARTIMQETYRAATERVMAELETLQYVDQAVPTAMGRLETIITNREALHTVVNNVRQVVDREVEQLMRNLVEGRNFKFRDGLGEANHAMSLTLDPYACGPCPLLQLLGRRSNLAVYQDLALSQCHGVFAGQSVEGRNFRNQFQPVLRRRVMDMFNNGFLSAKTLTVALSEGAAICAPSLTAGQTAPAESSFEGDVARVTLGFPKELRVKSRVLFAGASANASEAAKARVASLQSAYQKPDKRVDILLGPLGFLLKQFHAAIFPNGKPPGSNQPNPQWFWTALQRNQLPARLLSREDIETIAFIKKFSLDYGAINFINLAPNNVSELAMYYMANQILRYCDHSTYFINTLTAIIAGSRRPPSVQAAAAWSAQGGAGLEAGARALMDAVDAHPGAWTSMFASCNLLRPVMAARPMVVLGLSISKYYGMAGNDRVFQAGNWASLMGGKNACPLLIFDRTRKFVLACPRAGFVCAASNLGGGAHESSLCEQLRGIISEGGAAVASSVFVATVKSLGPRTQQLQIEDWLALLEDEYLSEEMMELTARALERGNGEWSTDAALEVAHEAEALVSQLGNAGEVFNFGDFGCEDDNATPFGGPGAPGPAFAGRKRAFHGDDPFGEGPPDKKGDLTLDML |  |  |  | binding result [5]: binds |
| ICP8-CTD Δ60 (domain or fragment, ICP8 (UL29) of HSV-1, C-terminal domain (begins at 1036) with the last 60 residues deleted; source: E. coli BL21 (pET28a-His-ICP8-CTDΔ60), purified (Talon cobalt beads, Superose 12 gel filtration)) AASNLGGGAHESSLCEQLRGIISEGGAAVASSVFVATVKSLGPRTQQLQIEDWLALLEDEYLSEEMMELTARALERGNGEWSTDAALEVAHEAEALVSQLG | 2 | 53.5 | 0.7 |  |
